Source: US20260216095A1, “NANOSHEET-HYDROGEL COMPOSITES AND METHODS OF US” (Rutgers, The State University of New Jersey, priority 2023, published 2026)

Tested on: aggrecan (ACAN)
Assay: Rat nucleotomy model, immunohistochemistry for aggrecan
Assay type: in vivo, Sprague-Dawley rats
Conditions: six weeks
Procedure: Animal Model Nucleotomy: In total, eight-weeks-old female Sprague-Dawley rats (220-240 g) were purchased from Orient Bio Inc., Korea, and were acclimatized for a week at a life/dark cycle of 12/12 h (temperature; 22±1° C. and relative humidity; 50%±1%) and free approach to food and water. The animal experiments were performed according to the direction approved by the Institutional Animal Care and Use Committee (IACUC) of CHA Bundang Medical Center (IACUC 200141). At the beginning of the surgery, the peritoneal site was sterilized with 70% alcohol. Afterward, rats were thoroughly anesthetized with a general anesthesia mixture of Zoletil® (50 mg/kg Virbac Laboratories, France) and Rompun® (10 mg/kg, Bayer, Korea) injected intraperitoneally. […]
Immunohistochemistry: After six weeks of implantation, rats were euthanized via excess carbon dioxide inhalation and coccygeal discs were collected, and immunohistochemical analysis was performed for aggrecan (disc matrix component), collagen type II (a component of disc NP matrix), CGRP (pain-marker), Iba1 (pan-macrophage), CD86 (M1-macrophage) and CD163(M2-macrophage). […] The sections were mounted and finally examined using a fluorescence microscope (Zeiss 880, Germany and Leica SP5, Germany). The percentage of the positive area and cell number relative to DAPI was calculated by using ImageJ Software.

B1: GDF-5 alone: growth differentiation factor 5 (Peprotech, Catalog No. 120-01), given as saline solution (protein, UniProt P43026 382-501, looked up)
Growth/differentiation factor …: APLATRQGKRPSKNLKARCSRKALHVNFKDMGWDDWIIAPLEYEAFHCEGLCEFPLRSHLEPTNHAVIQTLMNSMDPESTPPTCCVPTRLSPISILFIDSANNVVYKQYEDMVVESCGCR
aggrecan expression (IHC): decreased aggrecan expression
